Experimental findings from the supplement of paper PMC5998384 are described below.

Data set [1] relates to HeLa Kyoto. The data set can be described thus: solubility in G1/S (NP-40 vs SDS abundance) (log2 ratio); higher = more soluble. Particulars: cell cycle stage: G1/S.
The test system of data set [2] is HeLa Kyoto. The data set can be described thus: melting temperature (median over replicates), in situ; higher = more thermally stable.
The subject of data set [3] is HeLa Kyoto. The data set can be described thus: solubility change mitosis vs G1/S (difference of NP-40 vs SDS log2 ratios) (log2 ratio difference); higher = more soluble in mitosis.
For data set [4], the system named is HeLa Kyoto. The data set can be described thus: thermal stability score vs G1/S (z-score of summed log2 fold changes over temperatures); higher = more thermally stable than in G1/S.
Setting [5] is: cell cycle stage: early G1 (4.5 h after nocodazole release).
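For melting temperature (median over replicates), in situ in this document: HeLa Kyoto cells synchronized by double thymidine or nocodazole block, proteins quantified by TMT10plex mass spectrometry, three independent biological replicates.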
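For solubility change mitosis vs G1/S (difference of NP-40 vs SDS log2 ratios) in this document: synchronized HeLa Kyoto cells (double thymidine block for G1/S, nocodazole release for mitosis), protein amounts in NP-40 versus SDS lysates quantified by mass spectrometry, three biological replicates.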
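For solubility in G1/S (NP-40 vs SDS abundance) in this document: HeLa Kyoto cells arrested at G1/S by double thymidine block, proteins quantified by TMT10plex mass spectrometry in mild NP-40 versus SDS extracts, three biological replicates.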
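For thermal stability score vs G1/S (z-score of summed log2 fold changes over temperatures) in this document: synchronized HeLa Kyoto cells, proteins quantified by TMT10plex mass spectrometry, three biological replicates, mitosis taken 0.5 h after nocodazole release, G1/S directly after double thymidine block.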

Turning to “METQLQSIFEEVVKTEVIEEAFPGMFMDTPEDEKTKLISCLGAFRQFWGGLSQESHEQCIQWIVKFIHGQHSPKRISFLYDCLAMAVETGLLPPRLVCESLINSDTLEWERTQLWALTFKLVRKIIGGVDYKGVRDLLKVILEKILTIPNTVSSAVVQQLLAAREVIAYILERNACLLPAYFAVTEIRKLYPEGKLPHWLLGNLVSDFVDTFRPTARINSICGRCSLLPVVNNSGAICNSWKLDPATLRFPLKGLLPYDKDLFEPQTALLRYVLEQPYSRDMVCNMLGLNKQHKQRCPVLEDQLVDLVVYAMERSETEEKFDDGGTSQLLWQHLSSQLIFFVLFQFASFPHMVLSLHQKLAGRGLIKGRDHLMWVLLQFISGSIQKNALADFLPVMKLFDLLYPEKEYIPVPDINKPQSTHAFAMTCIWIHLNRKAQNDNSKLQIPIPHSLRLHHEFLQQSLRNKSLQMNDYKIALLCNAYSTNSECFTLPMGALVETIYGNGIMRIPLPGTNCMASGSITPLPMNLLDSLTVHAKMSLIHSIATRVIKLAHAKSSVALAPALVETYSRLLVYMEIESLGIKGFISQLLPTVFKSHAWGILHTLLEMFSYRMHHIQPHYRVQLLSHLHTLAAVAQTNQNQLHLCVESTALRLITALGSSEVQPQFTRFLSDPKTVLSAESEELNRALILTLARATHVTDFFTGSDSIQGTWCKDILQTIMSFTPHNWASHTLSCFPGPLQAFFKQNNVPQESRFNLKKNVEEEYRKWKSMSNENDIITHFSMQGSPPLFLCLLWKMLLETDHINQIGYRVLERIGARALVAHVRTFADFLVYEFSTSAGGQQLNKCIEILNDMVWKYNIVTLDRLILCLAMRSHEGNEAQVCYFIIQLLLLKPNDFRNRVSDFVKENSPEHWLQNDWHTKHMNYHKKYPEKLYFEGLAEQVDPPVQIQSPYLPIYFGNVCLRFLPVFDIVIHRFLELLPVSKSLETLLDHLGGLYKFHDRPVTYLYNTLHYYEMHLRDRAFLKRKLVHAIIGSLKDNRPQGWCLSDTYLKCAMNAREENPWVPDDTYYCRLIGRLVDTMAGKSPGPFPNCDWRFNEFPNPAAHALHVTCVELMALAVSGKEVGNALLNVVLKSQPLVPRENITAWMNAIGLIITALPEPYWIVLHDRIVSVISSPSLTSETEWVGYPFRLFDFTACHQSYSEMSCSYTLALAHAVWHHSSIGQLSLIPKFLTEVLLPIVKTEFQLLYVYHLVGPFLQRFQQERTRCMIEIGVAFYDMLLNVDQCSTHLNYMDPICDFLYHMKYMFTGDSVKEQVEKIICNLKPALKLRLRFITHISKMEPAAVPPQAMNSGSPAPQSNQVPVSLPVTQ [MED23]”, the “solubility in G1/S (log2)” value in the data set with HeLa Kyoto [1] was -0.217. The melting temperature in the data set with HeLa Kyoto [2] (cell cycle stage: G1/S) stood at 50.5 °C; with HeLa Kyoto [2] (cell cycle stage: mitosis) it was 51.1 °C. Moreover, the “solubility change mitosis (log2)” value in the data set with HeLa Kyoto [3] was -0.141. Moreover, the thermal stability score in the data set on HeLa Kyoto [4] (setting [5]) worked out at 1.35; with HeLa Kyoto [4] (cell cycle stage: mitosis), 1.94.
On to “METSAPRAGSQVVATTARHSAAYRADPLRVSSRDKLTEMAASSQGNFEGNFESLDLAEFAKKQPWWRKLFGQESGPSAEKYSVATQLFIGGVTGWCTGFIFQKVGKLAATAVGGGFFLLQLANHTGYIKVDWQRVEKDMKKAKEQLKIRKSNQIPTEVRSKAEEVVSFVKKNVLVTGGFFGGFLLGMAS [FUNDC2]”, for which the “solubility in G1/S (log2)” value with HeLa Kyoto [1] came to 0.0627. In addition, the melting temperature in the data set on HeLa Kyoto [2] (cell cycle stage: G1/S) came out at 58.2 °C; with HeLa Kyoto [2] (cell cycle stage: mitosis), 55.9 °C. Further, in the data set with HeLa Kyoto [3], the “solubility change mitosis (log2)” value was -0.0574. The thermal stability score was -0.847 in the data set with HeLa Kyoto [4] (setting [5]) and -1.68 in the data set with HeLa Kyoto [4] (cell cycle stage: mitosis).
With “MEVLAAETTSQQERLQAIAEKRKRQAEIENKRRQLEDERRQLQHLKSKALRERWLLEGTPSSASEGDEDLRRQMQDDEQKTRLLEDSVSRLEKEIEVLERGDSAPATAKENAAAPSPVRAPAPSPAKEERKTEVVMNSQQTPVGTPKDKRVSNTPLRTVDGSPMMKAAMYSVEITVEKDKVTGETRVLSSTTLLPRQPLPLGIKVYEDETKVVHAVDGTAENGIHPLSSSEVDELIHKADEVTLSEAGSTAGAAETRGAVEGAARTTPSRREITGVQAQPGEATSGPPGIQPGQEPPVTMIFMGYQNVEDEAETKKVLGLQDTITAELVVIEDAAEPKEPAPPNGSAAEPPTEAASREENQAGPEATTSDPQDLDMKKHRCKCCSIM [PALM]”, the “solubility in G1/S (log2)” value in the data set on HeLa Kyoto [1] was determined as 0.0461. Further, the melting temperature in the data set on HeLa Kyoto [2] (cell cycle stage: G1/S) was determined as 55.2 °C; in the data set on HeLa Kyoto [2] (cell cycle stage: mitosis), 57 °C. The “solubility change mitosis (log2)” value in the data set with HeLa Kyoto [3] worked out at 0.116. For the same sequence, the values for the thermal stability score with HeLa Kyoto [4] (setting [5]) and with HeLa Kyoto [4] (cell cycle stage: mitosis) were -0.779 and -1.02, respectively.
Regarding “MEVPPPAPRSFLCRALCLFPRVFAAEAVTADSEVLEERQKRLPYVPEPYYPESGWDRLRELFGKDEQQRISKDLANICKTAATAGIIGWVYGGIPAFIHAKQQYIEQSQAEIYHNRFDAVQSAHRAATRGFIRYGWRWGWRTAVFVTIFNTVNTSLNVYRNKDALSHFVIAGAVTGSLFRINVGLRGLVAGGIIGALLGTPVGGLLMAFQKYSGETVQERKQKDRKALHELKLEEWKGRLQVTEHLPEKIESSLQEDEPENDAKKIEALLNLPRNPSVIDKQDKD [TIMMDC1]”, the “solubility in G1/S (log2)” value with HeLa Kyoto [1] is -0.03. Also, the melting temperature worked out at 55.6 °C with HeLa Kyoto [2] (cell cycle stage: G1/S) and 55.2 °C in the data set on HeLa Kyoto [2] (cell cycle stage: mitosis). In the data set on HeLa Kyoto [3], the “solubility change mitosis (log2)” value stood at 0.01. Moreover, the thermal stability score is -2.95 in the data set with HeLa Kyoto [4] (setting [5]) and -2.24 in the data set on HeLa Kyoto [4] (cell cycle stage: mitosis).
On to “MEVVPAEVNSLLPEEIMDTGITLVDDDSIEAVIVSSPIPMETELEEIVNINSTGDSTATPISTEPITVYSNHTNQVAVNTTITKADSNTTVKPAFPSGLQKLGAQTPVTISANQIILNKVSQTSDLKLGNQTLKPDGQKLILTTLGKSGSPIVLALPHSQLPQAQKVTTQAQSGDAKLPPQQIKVVTIGGRPEVKPVIGVSALTPGSQLINTTTQPSVLQTQQLKTVQIAKKPRTPTSGPVITKLIFAKPINSKAVTGQTTQVSPPVIAGRVLSQSTPGTPSKTITISESGVIGSTLNSTTQTPNKIAISPLKSPNKAVKSTVQTITVGGVSTSQFKTIIPLATAPNVQQIQVPGSKFHYVRLVTATSASSSTQPVSQNPSTNTQPLQQAKPVVVNTTPVRMSVPIVSAQAVKQVVPKPINPTSQIVTTSQPQQRLIMPATPLPQIQPNLTNLPPGTVLAPAPGTGNVGYAVLPAQYVTQLQQSSYVSIASNSTFTGTSGIQTQARLPFNGIIPSESASRPRKPCNCTKSLCLKLYCDCFANGEFCNNCNCTNCYNNLEHENERQKAIKACLDRNPEAFKPKIGKGKEGESDRRHSKGCNCKRSGCLKNYCECYEAKIMCSSICKCIGCKNFEESPERKTLMHLADAAEVRVQQQTAAKTKLSSQISDLLTRPTPALNSGGGKLPFTFVTKEVAEATCNCLLAQAEQADKKGKSKAAAERMILEEFGRCLMSVINSAGKAKSDPCAMNC [LIN54]”, for which the “solubility in G1/S (log2)” value in the data set with HeLa Kyoto [1] is 0.15. Moreover, the melting temperature is 46.4 °C in the data set with HeLa Kyoto [2] (cell cycle stage: G1/S) and 50.1 °C in the data set on HeLa Kyoto [2] (cell cycle stage: mitosis). In addition, the “solubility change mitosis (log2)” value in the data set with HeLa Kyoto [3] was -0.11. For the same sequence, the thermal stability score with HeLa Kyoto [4] (setting [5]) came out at 0.22; with HeLa Kyoto [4] (cell cycle stage: mitosis), 0.778.
